Measured values: patent US5928933A, “Process for the enzymatic resolution of N-(alkoxycarbonyl)-4-ketoproline alkyl esters or N-(alkoxycarbonyl)-4-hydroxyproline alkyl esters using Candida antarctica lipase B” (priority 1998, dated 1999)

T1: Candida antartica lipase fraction B (CALB) (Moesziomyces antarcticus, UniProt P41365)
T1 construct: purchased Boehringer Mannheim CHIRAZYME L-2
T1 sequence (P41365 26-342): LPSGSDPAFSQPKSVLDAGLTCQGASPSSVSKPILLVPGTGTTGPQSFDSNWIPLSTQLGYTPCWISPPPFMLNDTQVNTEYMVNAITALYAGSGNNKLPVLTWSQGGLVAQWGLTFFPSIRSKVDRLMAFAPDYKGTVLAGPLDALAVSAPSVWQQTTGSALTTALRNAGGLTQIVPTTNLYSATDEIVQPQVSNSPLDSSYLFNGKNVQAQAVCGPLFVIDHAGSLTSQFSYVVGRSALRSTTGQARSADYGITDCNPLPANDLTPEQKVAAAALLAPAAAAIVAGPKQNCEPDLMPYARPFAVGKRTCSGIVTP

B1: protease, trypsin bovine pancreas: commercial trypsin, source bovine pancreas (protein, UniProt P00760 24-246, looked up)
Serine protease 1: IVGGYTCGANTVPYQVSLNSGYHFCGGSLINSQWVVSAAHCYKSGIQVRLGEDNINVVEGNEQFISASKSIVHPSYNSNTLNNDIMLIKLKSAASLNSRVASISLPTSCASAGTQCLISGWGNTKSSGTSYPDVLKCLKAPILSDSSCKSAYPGQITSNMFCAGYLEGGKDSCQGDSGGPVVCSGKLQGIVSWGSGCAQKNKPGVYTKVCNYVSWIKQTIASN
B2: lipase (Chirazyme L7): commercial enzyme preparation, source porcine pancreas (protein, UniProt P00591 1-450, looked up)
Pancreatic triacylglycerol …: SEVCFPRLGCFSDDAPWAGIVQRPLKILPWSPKDVDTRFLLYTNQNQNNYQELVADPSTITNSNFRMDRKTRFIIHGFIDKGEEDWLSNICKNLFKVESVNCICVDWKGGSRTGYTQASQNIRIVGAEVAYFVEVLKSSLGYSPSNVHVIGHSLGSHAAGEAGRRTNGTIERITGLDPAEPCFQGTPELVRLDPSDAKFVDVIHTDAAPIIPNLGFGMSQTVGHLDFFPNGGKQMPGCQKNILSQIVDIDGIWEGTRDFVACNHLRSYKYYADSILNPDGFAGFPCDSYNVFTANKCFPCPSEGCPQMGHYADRFPGKTNGVSQVFYLNTGDASNFARWRYKVSVTLSGKKVTGHILVSLFGNEGNSRQYEIYKGTLQPDNTHSDEFDSDVEVGDLQKVKFIWYNNNVINPTLPRVGASKITVERNDGKVYDFCSQETVREEVLLTLNPC

Assays:
Assay type in all cases: biochemical
[1] = target: T1, Candida antartica lipase fraction B (CALB); experiment: Relative rates of hydrolysis of N-(alkoxycarbonyl)-trans-4-hydroxy-L-proline methyl esters by CALB; details: for time to complete hydrolysis of the methyl ester / initial reaction rate: 50 mM substrate, 3.0 mg/mL CALB, 25° C.; for time to complete hydrolysis of the methyl ester: 0.100M potassium phosphate pH 7.0; for initial reaction rate: pH 7.0
Protocol: A 2.0 mL aqueous solution containing 50 mM N-(methoxycarbonyl)-trans-4-hydroxy-L-proline methyl ester, or 50 mM N-(ethoxycarbonyl)-trans-4-hydroxy-L-proline methyl ester, or 50 mM N-(tert-butoxycarbonyl)-trans-4-hydroxy-L-proline methyl ester in 0.100M potassium phosphate (pH 7.0) and 3.0 mg/mL of Candida antartica lipase fraction B was mixed at 25° C. The reactions were analyzed by removal of 0.200 mL aliquots at pre-determined times and mixing the sample with an equivalent volume of 0.100M propionic acid (HPLC internal standard) in water, and filtering the resulting solution through a 10K molecular weight cut-off filter to remove the enzyme. The filtrate was then analyzed by high pressure liquid chromatography on a HPX-87H column (Bio-Rad, 30 cm×7.8 mm) to determine the percent conversion of the N-(alkoxycarbonyl)-trans-4-hydroxy-L-proline methyl ester. Complete hydrolysis of the methyl ester of the N-methoxy-, N-ethoxy-, and N-tert-butoxycarbonyl derivatives occurred in 5 h, 2 h, and 6 h, respectively, and the initial reaction rates were 5.7, 18.7, and 3.3 micromoles/h/mg enzyme catalyst, respectively.

[2] = Enzyme screens for resolution of diastereomeric mixture CHLP(MEMC)/THLP(MEMC) (Example 13); details: 0.050M each isomer, 5 h, 5.0 to 50 mg/mL enzyme, 25° C.; for conv. (percent conversion of the diastereomeric mixture): 0.100M potassium phosphate pH 7.0; for % de (diastereomeric excess of the cis-L-isomer): pH 7.0
Protocol: (§1) An aqueous solution containing 0.050M N-(methoxycarbonyl)-trans-4-hydroxy-L-proline methyl ester and 0.050M N-(methoxycarbonyl)-cis-4-hydroxy-L-proline methyl ester in 0.100M potassium phosphate (pH 7.0) was mixed with 5.0 to 50 mg/mL of commercial enzyme preparations (listed in the table below) at 25° C. The reactions were analyzed after 5 h by removal of a 0.200 mL sample and mixing with an equivalent volume of 0.100M propionic acid (HPLC internal standard) in water. The resulting solution was filtered through a 10K molecular weight cut-off filter to remove the enzyme and the filtrate analyzed by high pressure liquid chromatography on a HPX-87H column (Bio-Rad, 30 cm×7.8 mm) to determine the percent conversion of the diastereomeric mixture, and the diastereomeric excess of the N-(methoxycarbonyl)-cis-4-hydroxy-L-proline methyl ester.

[3] = Enzyme screens for resolution of diastereomeric mixture CHDP(MEMC)/THLP(MEMC) (Example 9); details: 0.050M each isomer, 5 h or 24 h, 5.0 to 50 mg/mL enzyme, 25° C.; for conv. (percent conversion of the diastereomeric mixture): 0.100M potassium phosphate pH 7.0; for % de (diastereomeric excess of the D-isomer, CHDP(MEMC)): pH 7.0
Protocol: as §1, with “aqueous solution (1.0 mL) containing 0.050M” for “aqueous solution containing 0.050M”, “and 0.050M N-(methoxycarbonyl)-cis-4-hydroxy-D-proline methyl ester” for “and 0.050M N-(methoxycarbonyl)-cis-4-hydroxy-L-proline methyl ester”, “after 5 h or 24 h by” for “after 5 h by”, “conversion of each isomer of the diastereomeric” for “conversion of the diastereomeric”, “of the N-(methoxycarbonyl)-cis-4-hydroxy-D-proline methyl ester.” for “of the N-(methoxycarbonyl)-cis-4-hydroxy-L-proline methyl ester.”

[4] = Enzyme screens for resolution of racemic N-(acetyl)-4-keto-D,L-proline methyl ester (Example 7, comparative); details: 0.100M racemate, 5 h, 5.0 to 30 mg/mL enzyme, 25° C.; for conv. (percent conversion of the racemate): 0.20M sodium succinate pH 6.0; for % ee (enantiomeric excess of the D-isomer): pH 6.0
Protocol: (§2) An aqueous solution (1.0 mL) containing 0.100M racemic N-(acetyl)-4-keto-D,L-proline methyl ester in 0.20M sodium succinate (pH 6.0) was mixed with 5.0 to 30 mg/mL of commercial enzyme preparations (listed in the table below) at 25° C. […] The dichloromethane extract was then analyzed by chiral gas chromatography on a Chiraldex G-TA column (Advanced Separation Technologies, Inc., 50 m×0.32 mm ID) to determine the percent conversion of the racemate, and the enantiomeric excess of the N-(acetyl)-4-keto-D-proline methyl ester.

[5] = Enzyme screens for resolution of racemic N-(methoxycarbonyl)-4,4-dimethoxy-D,L-proline methyl ester (Example 8, comparative); details: 0.100M racemate, 6 h or 17 h, 5.0 to 30 mg/mL enzyme, 25° C.; for conv. (percent conversion of the racemate): 0.25M potassium phosphate pH 7.0; for % ee (enantiomeric excess of the D-isomer): pH 7.0
Protocol: as §2, with “N-(methoxycarbonyl)-4,4-dimethoxy-D,L-proline” for “N-(acetyl)-4-keto-D,L-proline”, “0.25M potassium phosphate” for “0.20M sodium succinate”, “7.0)” for “6.0)”, “ethyl acetate” for “dichloromethane”, “N-(methoxycarbonyl)-4,4-dimethoxy-D-prolinemethyl” for “the N-(acetyl)-4-keto-D-proline methyl”

[6] = Enzyme screens for resolution of racemic N-(methoxycarbonyl)-4-keto-D,L-proline methyl ester (Example 1); details: 0.100M racemate, 5.0 to 50 mg/mL enzyme, 25° C., optimum; for conv. (percent conversion of the racemate): 0.20M sodium succinate pH 6.0, 5 h or 0.20M sodium acetate pH 5.0, 24 h; for % ee (enantiomeric excess of the D-isomer; L-isomer with porcine liver esterase): pH 6.0, 5 h or pH 5.0, 24 h
Protocol: An aqueous solution (1.0 mL) containing 0.100M racemic N-(methoxycarbonyl)-4-keto-D,L-proline methyl ester in either 0.20M sodium succinate (pH 6.0) or 0.20M sodium acetate (pH 5.0) was mixed with 5.0 to 50 mg/mL of commercial enzyme preparations (listed in the table below) at 25° C. […] The dichloromethane extract was then analyzed by chiral gas chromatography on a Chiraldex G-TA column (Advanced Separation Technologies, Inc., 50 m×0.32 mm ID) to determine the percent conversion of the racemate, and the enantiomeric excess of the N-(methoxycarbonyl)-4-keto-D-proline methyl ester.

| Molecule | time to complete hydrolysis of the methyl ester [1] | initial reaction rate [1] | initial rate of methyl ester hydrolysis, times faster than THLP(MEBOC) ([1]; CALB) | initial rate of methyl ester hydrolysis, times faster than THLP(MEEC) as printed ([1]; CALB) | conv. (percent conversion of the diastereomeric mixture) [2] | % de (diastereomeric excess of the cis-L-isomer) [2] | conv. (percent conversion of the diastereomeric mixture) [3] | % de (diastereomeric excess of the D-isomer, CHDP(MEMC)) [3] | conv. (percent conversion of the racemate) [4] | % ee (enantiomeric excess of the D-isomer) [4] | conv. (percent conversion of the racemate) [5] | % ee (enantiomeric excess of the D-isomer) [5] | conv. (percent conversion of the racemate) [6] | % ee (enantiomeric excess of the D-isomer; L-isomer with porcine liver esterase) [6] |
| --- | --- | --- | --- | --- | --- | --- | --- | --- | --- | --- | --- | --- | --- | --- |
| COC(=O)[C@@H]1C[C@@H](O)CN1C(=O)OC(C)(C)C [THLP(MEBOC), N-(tert-butoxycarbonyl)-trans-4-hydroxy-L-proline methyl ester] | 6 h | 3.3 micromoles/h/mg enzyme catalyst | – | – | – | – | – | – | – | – | – | – | – | – |
| CCOC(=O)N1C[C@H](O)C[C@H]1C(=O)OC [THLP(MEEC), N-(ethoxycarbonyl)-trans-4-hydroxy-L-proline methyl ester] | 2 h | 18.7 micromoles/h/mg enzyme catalyst | ~1.7 times | approximately 3.3 times | – | – | – | – | – | – | – | – | – | – |
| B1 | – | – | – | – | 0% | 0% | 0% | 0% | 0% | 0% | 0% | 0% | 0% | 0% |
| B2 | – | – | – | – | 0% | 0% | 0% | 0% | 0% | 0% | 10% | 0% | 0% | 0% |
